Laboratory results from patent publication US20020119154A1 (University of Pennsylvania, published 2002).

B1: human prolactin (hPRL) (ligand, UniProt P01236 29-227, looked up)
chain: LPICPGGAARCQVTLRDLFDRAVVLSHYIHNLSSEMFSEFDKRYTHGRGFITKAINSCHTSSLATPEDKEQAQQMNQKDFLSLIVSILRSWNEPLYHLVTEVRGMQEAPEAILSKAVEIEEQTKRLLEGMELIVSQVHPETKENEIYPVWSGLPSLQMADEESRLSAYYNLLHCLRRDSHKIDNYLKLLKCRIIHNNNC
notes: Serum PRL and added hPRL are treated as one molecule; also called serum PRL; plasma PRL
B2: recombinant human prolactin binding protein (rhPRLBP) (receptor, UniProt P16471 25-234, looked up)
chain: QLPPGKPEIFKCRSPNKETFTCWWRPGTDGGLPTNYSLTYHREGETLMHECPDYITGGPNSCHFGKQYTSMWRTYIMMVNATNQMGSSFSDELYVDVTYIVQPDPPLELAVEVKQPEDRKPYLWIKWSPPTLIDLKTGWFTLLYEIRLKPEKAAEWEIHFAGQQTEFKILSLHPGQKYLVQVRCKPDHGYWSAWSPATFIQIPSDFTMND

What was measured:
[1] = biological target: B2; experiment: surface plasmon resonance, various concentrations of rPRLBP; binding site I of PRL; rPRLBP in solution at various concentrations
[2] = biological target: B1; experiment: cell-based or functional assay

Kd [1] [nM] | rat Nb2-11C lymphoma cell proliferation (tritiated thymidine uptake), 50 pM hPRL, 0-100 nM rhPRLBP [2] [fold] | Binder
13.4 | – | B1
– | 3 | B2
